Patent US20230331817A1 (The Regents of the University of California, priority 2020, published 2023)
Like-named read-outs stand apart in the source and are kept apart here.

Assays:
[1] = system: mouse tail bleeding model; details: cited from earlier work
human plasmin = target: T1, human plasmin (Homo sapiens, UniProt P00747); assay: Protease inhibition assay, plasmin (S-2251 amidolytic activity); assay type: biochemical; details: 3 nM plasmin; 1 hour at room temperature; tight-binding equation
T1 construct: purchased Hematologic Technologies Inc (Essex Junction, VT)
T1 sequence (P00747 97-580 limits assumed): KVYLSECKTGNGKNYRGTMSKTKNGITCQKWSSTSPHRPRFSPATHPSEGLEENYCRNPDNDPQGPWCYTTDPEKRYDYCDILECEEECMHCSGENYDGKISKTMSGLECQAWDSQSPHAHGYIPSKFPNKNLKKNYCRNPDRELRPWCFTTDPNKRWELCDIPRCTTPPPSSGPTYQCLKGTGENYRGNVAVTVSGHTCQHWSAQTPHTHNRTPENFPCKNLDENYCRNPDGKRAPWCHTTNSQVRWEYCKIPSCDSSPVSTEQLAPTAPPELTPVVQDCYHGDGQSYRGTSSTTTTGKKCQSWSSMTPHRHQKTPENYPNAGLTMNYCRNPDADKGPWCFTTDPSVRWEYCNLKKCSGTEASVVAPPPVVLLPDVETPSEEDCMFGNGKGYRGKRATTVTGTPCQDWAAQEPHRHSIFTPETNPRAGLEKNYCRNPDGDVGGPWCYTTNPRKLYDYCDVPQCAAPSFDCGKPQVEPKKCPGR
T1 sequence (P00747 581-810 limits assumed): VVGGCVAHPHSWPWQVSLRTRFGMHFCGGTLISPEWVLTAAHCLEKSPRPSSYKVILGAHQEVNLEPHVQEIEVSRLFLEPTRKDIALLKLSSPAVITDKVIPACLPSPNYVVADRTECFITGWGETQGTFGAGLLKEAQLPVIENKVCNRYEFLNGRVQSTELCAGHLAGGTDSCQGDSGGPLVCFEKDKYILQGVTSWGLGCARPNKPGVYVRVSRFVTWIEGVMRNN
Procedure: (§1) All reactions were carried out in TBS, pH 7.5 (50 mM Tris-HCL, pH 7.5, containing 100 mM NaCl), containing 0.1 mg bovine serum albumin/ml (TBS/BSA) and 2 mM Ca2+(TBS/BSA/Ca2+, pH 7.5). […] The inhibition constant, K* was determined using the nonlinear regression data analysis program Grafit.
(§2) Ki values were obtained by correcting for the effect of substrate according to Beith (38), using equation 2, where (S) is substrate concentration and KM is specific for each enzyme.
Reactions were carried out in TBS/BSA and 2 mM calcium. […] Synthetic substrate for plasmin was then added to a final concentration of 1 KM, and residual amidolytic activity was measured in a kinetic microplate reader (Molecular Devices).

FVIIa/sTF = target: T2, FVIIa/sTF (Homo sapiens, UniProt P08709); assay: Protease inhibition assay, FVIIa/soluble tissue factor; assay type: biochemical; details: 20 nM FVIIa/sTF; read-out: Ki for Factor VIIa/soluble tissue factor
T2 construct: human factor VIIa (FVIIa) was prepared as described previously (34)
T2 sequence (P08709 213-466 limits assumed): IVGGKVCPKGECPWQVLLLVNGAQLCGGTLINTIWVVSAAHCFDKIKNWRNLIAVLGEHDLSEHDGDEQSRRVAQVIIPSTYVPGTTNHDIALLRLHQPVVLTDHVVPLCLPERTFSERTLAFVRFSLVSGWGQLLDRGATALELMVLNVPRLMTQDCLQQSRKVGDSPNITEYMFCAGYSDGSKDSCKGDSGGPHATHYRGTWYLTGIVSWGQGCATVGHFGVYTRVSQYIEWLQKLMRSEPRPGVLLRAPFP
T2 sequence (P08709 61-212 limits assumed): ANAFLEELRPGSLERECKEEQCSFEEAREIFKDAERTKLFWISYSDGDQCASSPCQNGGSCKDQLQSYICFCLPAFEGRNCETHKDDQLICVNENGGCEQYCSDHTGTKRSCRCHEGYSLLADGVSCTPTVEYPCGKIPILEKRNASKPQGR
T2 sequence (P13726 33-251 partner limits assumed): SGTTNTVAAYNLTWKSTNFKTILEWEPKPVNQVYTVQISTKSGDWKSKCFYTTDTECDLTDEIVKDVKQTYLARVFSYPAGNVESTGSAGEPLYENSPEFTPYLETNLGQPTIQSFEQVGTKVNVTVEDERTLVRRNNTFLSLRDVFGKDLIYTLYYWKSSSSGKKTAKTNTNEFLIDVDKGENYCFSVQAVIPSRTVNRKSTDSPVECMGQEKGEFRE
Procedure: as §1, §2

FXa = target: T3, FXa (Homo sapiens, UniProt P00742); assay: Protease inhibition assay, factor Xa; assay type: biochemical; details: 1 nM FXa
T3 construct: FXa, factor Xa
T3 sequence (P00742 235-488 limits assumed): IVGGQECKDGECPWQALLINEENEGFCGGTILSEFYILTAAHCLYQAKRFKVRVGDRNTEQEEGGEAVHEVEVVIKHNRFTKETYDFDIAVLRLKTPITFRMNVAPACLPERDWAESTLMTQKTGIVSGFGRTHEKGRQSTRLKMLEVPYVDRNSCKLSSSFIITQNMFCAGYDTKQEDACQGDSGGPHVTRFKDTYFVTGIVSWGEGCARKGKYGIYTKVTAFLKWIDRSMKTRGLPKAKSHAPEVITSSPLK
T3 sequence (P00742 41-179 limits assumed): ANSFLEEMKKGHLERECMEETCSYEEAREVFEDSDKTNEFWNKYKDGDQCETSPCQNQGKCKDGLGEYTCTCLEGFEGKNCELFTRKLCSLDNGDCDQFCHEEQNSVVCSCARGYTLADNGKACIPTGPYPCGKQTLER
Procedure: FIG. 2. Data from Equilibrium inhibition constants (Ki) of KD1Y11T/R15KL17R-KT with plasmin, FXIa, kallikrein (KLK), FVIIa/sTF and FXa. Percent activity of 3 nM human plasmin remaining in the presence of various concentrations (0.05 to 19.2 nM) of KD1Y11T/R15KL17R-KT (●) or BPTI (◯). And percent activity of 1 nM human FXIa (▴), 1 nM human kallikrein (●), 20 nM human FVIIa/sTF (Δ) and 1 nM FXa (♦) remaining in the presence of various concentrations (1 μM to 30 μM) of KD1Y11T/R15KL17R-KT.
Ki values for each inhibitor were calculated using the tight binding equations.

HUVEC [2] = assay type: cell-based, human
Procedure: (§3) Resazurin reduction assay (Fisher Scientific) was used to evaluate the potential cytotoxicity of antifibrinolytic agents toward primary human endothelial cells and skin fibroblasts. Phosphate buffer that was used to dissolve the samples was included as negative control. The assay is based on reduction of the non-fluorescent dye resazurin, to the highly fluorescent resorufin by viable cells. […] Briefly, cells in 96-well cell culture plates were treated with different concentrations of antifibrinolytic compounds (as described above). After 24 hours resazurin reagent was added to each well and the plates were incubated at 37° C. for 4 hours. Fluorescence was measured by the FLUOstar Omega Microplate Reader (BMG Labtech) using an excitation wavelength of 544 nm and an emission wavelength of 590 nm. Each assay was done in duplicate, with three replicates each. The viability was evaluated based on comparison with untreated cells.

[3] = system: primary human dermal skin fibroblasts; assay: Resazurin reduction (alamarBlue) viability assay, skin fibroblasts; assay type: cell-based
Procedure: as §3

HUVEC [4] = assay: Caspase 3/7 assay, HUVEC; assay type: cell-based, human; details: 24 hours; 30 μM KD1TM, 30 μM BPTI, 60 mM EACA, 30 mM TXA
Procedure: The influence of antifibrinolytic agents on apoptosis in cells was detected using the Caspase-Glo 3/7 Assay kit (Promega). Caspase 3 and 7 are activated in cells that undergo apoptosis. The assay provides a luminogenic substrate for caspase 3 and 7. Enzymatic activity leads to luminescence, which is proportional to the amount of caspase activity present. Cells were seeded in 96-well plates and treated with antifibrinolytic agents or phosphate buffer (solvent control). Taxol was included as positive control. After 24 hours of treatment, caspase reagent was added to each well, mixed and incubated for 1 hour at room temperature. Luminescence was measured using the FLUOstar Omega Microplate Reader (BMG Labtech).

HUVEC [5] = details: 24 hours; 30 μM KD1TM, 30 μM BPTI, 60 mM EACA, 30 mM TXA
Source text: (§4) Primary human pooled umbilical vein endothelial cells (HUVEC) were obtained from ATCC. The cells were maintained in Vascular Cell Basal Medium (ATCC), supplemented with the Endothelial Cell Growth Kit-BBE (ATCC) and Penicillin-Streptomycin-Amphotericin B (ATCC). Primary human dermal skin fibroblasts were obtained from LONZA and maintained in Fibroblast Basal Medium (FBMTM, LONZA), supplemented with a cocktail of growth factors, fetal bovine serum and antibiotics (FGMTM-2 SingleQuots™, LONZA). All cells were maintained in a humidified 5% C02 atmosphere at 37° C. and were passaged once they reached 80% confluence. All experiments were performed with cells in the logarithmic growth phase.
(§5) For toxicity studies, cells were seeded into 96-well or 24-well cell culture plates at 3,500 cells/cm2 and were used for experiments once they reached 80% confluence.
(§6) Cell toxicity and cell death was evaluated with the CellTox™ Green Cytotoxicity Assay (Promega). This assay measures changes in membrane integrity that occur as a result of cell death. The dye used in the system is excluded from viable cells but binds to DNA in compromised cells, which results in a fluorescent signal. We measured cell death in HUVEC and primary fibroblasts treated with antifibrinolytic agents at 4 concentrations (as indicated above) with triplicates per concentration in 24-well plates after 24 hours of exposure. Hoechst (Thermo Fisher Scientific) was used to stain all nuclei. Images of cells were captured using an inverted microscope (Nicon; Edipse T2000 TE). Green fluorescent cells (FITC filter) and Hoechst stained cells (DAPI filter) were counted using Image J software.

[6] = system: primary human dermal skin fibroblasts; details: 24 hours; 30 μM KD1TM, 30 μM BPTI, 60 mM EACA, 30 mM TXA
Source text: as §4, §5, §6

[7] = human, in vivo; cited from earlier work
[8] = in vivo; cited from earlier work

Substance	Reduction of blood loss [1]	Ki (human plasmin)	Ki (FVIIa/sTF)	Ki (FXa)	HUVEC viability (FIG. 4) (HUVEC [2])	Fibroblast cell viability (FIG. 5) [3]	Apoptosis, caspase-3/7 activity, HUVEC (FIG. 6) (HUVEC [4])	HUVEC cytotoxicity, CellTox green (FIG. 7) (HUVEC [5])	Fibroblasts cytotoxicity, CellTox green (FIG. 8) [6]	half-life [7]	half-life [8]
Textilinin-1 [Q8008]	as effective as aprotinin in reducing blood loss										
aprotinin		0.0005 ± 0.0001 µM	> 3 µM	> 3 µM	not significantly different from the untreated cells	not significantly different from the untreated cells	did not induce apoptosis	did not induce toxicity	did not induce toxicity	~2 h	~1.17 h
